In patent US20230039401A1, “COMPOSITIONS AND METHODS FOR TREATING NRP2-ASSOCIATED DISEASES” (aTyr Pharma, Inc., priority 2018, published 2023):

Key:
[1] = tested on: LPS-induced leukocyte infiltration into the mouse lung; test: Murine model of LPS-induced pulmonary inflammation; assay type: in vivo; conditions: single IV 3 mg/kg the day before LPS 10 μg/mouse; lavage 24 hours later
Excerpt: This study was designed to investigate the in vivo potential of test compounds in a murine model of neutrophil accumulation in the lung induced by airway instillation of lipopolysaccharide (LPS).
Treatment Regimen. Sixty-four (64) C57BL/6 mice (Jackson Laboratory, Bar Harbor, Me., USA, 8 week old females) were assigned to study groups of 8 mice, and housed in specific pathogen-free conditions with sterile food and water.
In brief, animals received a single intravenous injection of the vehicle of Fc-HRS(2-60) (20 mM Histidine/125 mM NaCl/10 mM Methionine/3% Sucrose/0.02% PS20, pH 6.9), Fc-HRS(2-60) (1, 3, or 10 mg/kg), or HRS(2-60)-COMP (3 mg/kg). The following day, mice were anesthetized by isoflurane inhalation and, using a gavage needle and attached syringe, 50 μL of LPS (Sigma L3024, E. coli 0111-B4, 10 μg/mouse) formulated in PBS, or PBS alone, was delivered to the back of the oral soft palate for inhalation. […]
Flow Cytometry Analysis. […] NRP2 was detected by addition of 25 μL of rabbit anti-mouse NRP2 (Cell Signaling Technology) at 10 μg/mL in FWB for 1 h in the dark on ice, and cells were then washed (data not shown). […]
Using GraphPad Prism 7, results were analyzed by one-way ANOVA followed by Dunn's multiple comparison test using the LPS/Vehicle group as the comparator. […]

[2] = tested on: murine bone marrow derived macrophages; test: Efferocytosis in bone marrow derived macrophages (pHrodo-loaded apoptotic jurkat cells); assay type: cell-based, mouse; conditions: 100 nM for 5 days during monocyte differentiation
Excerpt: This study was designed to investigate the in vivo potential of test compounds to modulate efferocytosis in murine bone marrow derived macrophages. Efferocytosis refers to the process by which dying/dead cells (e.g. apoptotic or necrotic cells) are removed by phagocytic cells. During efferocytosis, the cell membrane of phagocytic cells engulfs the apoptotic cell, forming a large fluid-filled vesicle containing the dead cell. Efferocytosis can be performed not only by ‘professional’ phagocytic cells such as macrophages or dendritic cells, but also by many other cell types including epithelial cells, fibroblasts and other cells. To distinguish them from living cells, apoptotic cells carry specific ‘eat me’ signals, such as the presence of phosphatidyl serine (resulting from phospholipid flip-flop) or calreticulin on the outer leaflet of the cell membrane. […] Like phagocytosis, acidification of the endosome, is a central aspect of endosome maturation, which can be readily monitored through the use of a pH sensitive probe, as described herein.
Methods and protocol. […] Confocal images were captured in Zeiss 710 Confocal Laser Scanning Microscope equipped with 4 lasers and images were captured and analyzed using Zeiss Zen 2010 software. For quantification, the intensity of red fluorescence in each field were measured and the arithmetic mean was calculated and represented graphically.

B1: HRS(2-60)-COMP: pentamer of HRS(2-60): HARS aa 2-60 fused to COMP pentameric domain (aa 28-73); made His tagged; SEQ ID NO:175 without tags (protein)
chain: ERAALEELVKLQGERVRGLKQQKASAELIEEEVAKLLKLKAQLGPDESKQKFVLKTPKGGGGSGGGGSSDLGPQMLRELQETNAALQDVRELLRQQVREITFLKNTVMECDAC
modifications: His tag; Made in Lab - HRS-COMP Fusion Protein
[1]
  number of airway neutrophils accumulating in response to LPS: significantly reduced
[2]
  efferocytosis (spectral shift of pH sensitive dye): profound inhibition of efferocytosis
